{
  "source": "patent US20250206795",
  "test_system": "T1, Mouse proBDNF-G-CSF-Tr protein",
  "T1 sequence": "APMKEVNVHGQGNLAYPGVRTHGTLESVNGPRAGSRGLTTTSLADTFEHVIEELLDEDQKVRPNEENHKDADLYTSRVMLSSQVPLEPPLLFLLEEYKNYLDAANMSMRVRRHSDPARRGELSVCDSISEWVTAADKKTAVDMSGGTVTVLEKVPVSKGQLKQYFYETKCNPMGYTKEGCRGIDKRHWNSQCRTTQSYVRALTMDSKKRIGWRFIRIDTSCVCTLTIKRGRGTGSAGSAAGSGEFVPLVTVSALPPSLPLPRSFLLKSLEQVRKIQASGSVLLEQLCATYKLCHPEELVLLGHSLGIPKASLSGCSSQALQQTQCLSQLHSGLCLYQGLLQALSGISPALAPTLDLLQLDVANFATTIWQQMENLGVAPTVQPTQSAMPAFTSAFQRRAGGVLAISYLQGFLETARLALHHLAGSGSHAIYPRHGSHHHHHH",
  "data": [
    {"substance": "furin", "values": [
      {"measurement": "enzymatic cleavage (SDS PAGE and Western blot with anti-4-His antibodies), 1 Unit furin, 30 C, 4 hours", "value": "furin effectively cleaved the proBDNF-G-CSF-Tr molecule to yield BDNF-G-CSF-Tr"}
    ]}
  ]
}
